Consider one molecule from US20180022822A1 (MABIMMUNE DIAGNOSTICS, published 2018).

Experiment [1] addresses T1, recombinant human Fibroblast Activation Protein (FAP) with N-terminus 6x histidine tag (human, UniProt Q12884 26-760).
T1 construct: Bought protein; also called rFAP; rhFAP
T1 sequence: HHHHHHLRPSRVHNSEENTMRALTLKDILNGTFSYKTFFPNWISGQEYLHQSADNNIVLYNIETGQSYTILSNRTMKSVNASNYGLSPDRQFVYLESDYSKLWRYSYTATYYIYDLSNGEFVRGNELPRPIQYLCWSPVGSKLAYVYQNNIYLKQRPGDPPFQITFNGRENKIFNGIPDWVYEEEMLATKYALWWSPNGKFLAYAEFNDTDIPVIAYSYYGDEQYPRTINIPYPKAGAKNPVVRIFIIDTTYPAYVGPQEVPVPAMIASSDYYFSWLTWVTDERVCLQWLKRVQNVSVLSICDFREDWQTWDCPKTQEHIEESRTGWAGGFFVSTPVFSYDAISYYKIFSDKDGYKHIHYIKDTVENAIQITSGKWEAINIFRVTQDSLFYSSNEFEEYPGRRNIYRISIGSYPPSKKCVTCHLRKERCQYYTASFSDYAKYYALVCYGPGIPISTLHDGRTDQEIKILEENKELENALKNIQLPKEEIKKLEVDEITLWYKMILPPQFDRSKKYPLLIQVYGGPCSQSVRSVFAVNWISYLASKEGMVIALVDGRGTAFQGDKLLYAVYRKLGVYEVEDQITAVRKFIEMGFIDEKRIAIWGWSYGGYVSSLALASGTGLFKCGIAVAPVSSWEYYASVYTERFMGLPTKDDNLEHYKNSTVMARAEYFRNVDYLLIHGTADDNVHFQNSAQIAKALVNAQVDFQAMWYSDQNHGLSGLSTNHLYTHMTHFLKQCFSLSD
Put plainly: capture ELISA: His-tagged rFAP captured by coated anti-His antibody (sFAP). How it is done: For the capture ELISA, the microplates were coated with mouse anti-His monoclonal antibody (Clontech) diluted to a concentration of 3 μg/ml in PBS, the plates were then blocked, FAP or BSA were diluted to a concentration of 2 μg/ml in PBS and added to the plates to be captured. The binding efficiency of the antibodies was then tested.
The EC₅₀ values were estimated by a non-linear regression using GraphPad Prism (San Diego, USA) software.

Experiment [2] concerns the target T2, cFAP (mixture of three FAP peptides) (human).
T2 construct: A mixture of three separate peptides coated together, not a complex; The three chains are the three components; also called directly coated FAP peptides mixture
T2 peptide 1: HYIKDTVENAIQITS
T2 peptide 2: GWSYGGYVSSLALAS
T2 peptide 3: QVDFQAMWYSDQNHGL
Put plainly: direct ELISA: coated mixture of three FAP peptides (cFAP).

B1: NI-206.82C2 (antibody, V domains shown)
VH: QVQLQQSGPGLVKPSQTLSLTCAISGDSVSSNSVTWNWIRQSPSRGLEWLGRTYYRSKWYNDYAVSVKGRITINPDTSKNQFYLQLKSVTPEDAAVYYCARDSSILYGDYWGQGTLVTVSS
VL: QAVLTQPSSLSASPGASASLTCTLPSGINVGTYRIFWFQQKPGSPPQYLLSYKSDSDNHQGSGVPSRFSGSKDASANAGILLISGLQSEDEADYYCMIWHSSAWVFGGGTKLTVL
notes: Recombinantly expressed as complete human IgG1 with a lambda light chain; HRP-labelled in the homologue and sandwich ELISAs, Cy5-labelled in flow cytometry; also called HRP-labelled 82C2; Cy5 labelled 82C2
Regarding B1, the EC50 in experiment [1] worked out at 0.014 nM. Further, in experiment [2], the binding result is given as “no binding”.
